Here are results for 64 substances from patent US20170037111A1, “Novel peptides and combination of peptides for use in immunotherapy against ovarian cancer and other cancers” (immatics biotechnologies GmbH, priority 2015, published 2017).

In the assay the target is HLA-A*02:01 (Homo sapiens, UniProt P04439, D140Y/D185E/D98H/E176V/E277Q/G131W/G231S/I119V/I121R/I166T/I218V/L300P/L318F/N151K/N90K/P208A/P217A/Q86G/Q94H/R138H/R169H/T345S). Briefly: MHC binding assay (UV-ligand exchange, β2m ELISA, peptide exchange yield). To be noted: MHC class I binding score; binding to HLA-A*02:01 ranged by peptide exchange yield (UV-ligand exchange, β2m ELISA). The text has this:
Candidate peptides for T cell based therapies according to the present invention were further tested for their MHC binding capacity (affinity). The individual peptide-MHC complexes were produced by UV-ligand exchange, where a UV-sensitive peptide is cleaved upon UV-irradiation, and exchanged with the peptide of interest as analyzed. Only peptide candidates that can effectively bind and stabilize the peptide-receptive MHC molecules prevent dissociation of the MHC complexes. To determine the yield of the exchange reaction, an ELISA was performed based on the detection of the light chain (β2m) of stabilized MHC complexes. The assay was performed as generally described in Rodenko et al. (Rodenko et al., 2006).
96 well MAXISorp plates (NUNC) were coated over night with 2 ug/ml streptavidin in PBS at room temperature, washed 4× and blocked for 1h at 37° C. in 2% BSA containing blocking buffer. […] Peptide-MHC monomers of the UV-exchange reaction were diluted 100 fold in blocking buffer. Samples were incubated for 1h at 37° C., washed four times, incubated with 2 ug/ml HRP conjugated anti-β2m for 1h at 37° C., washed again and detected with TMB solution that is stopped with […]. Absorption was measured at 450 nm. Candidate peptides that show a high exchange yield (preferably higher than 50%, most preferred higher than 75%) are generally preferred for a generation and production of antibodies or fragments thereof, and/or T cell receptors or fragments thereof, as they show sufficient avidity to the MHC molecules and prevent dissociation of the MHC complexes.
Background: In an ELISA, binding on a coated surface is turned into a signal by an enzyme label.

As to “274 (SLLFSLFEA; listed as Homo sapiens) [compound 274]”, the Peptide exchange result is on record as “″++″ (≧20% = ++)”.

For “514 (ILVDWLVQV; listed as Homo sapiens) [compound 514]”, the Peptide exchange entry is given as “″+++″ (≧50% = +++)”. Take “530 (VMYADIGGMDI; listed as Homo sapiens) [compound 530]”: the Peptide exchange result is listed as “″+++″ (≧50% = +++)”. Consider “71 (GILARIASV; listed as Homo sapiens) [compound 71]”, for which the Peptide exchange result was “″+++″ (≧50% = +++)”.

For the substance “84 (VTFGEKLLGV; listed as Homo sapiens) [compound 84]”, the Peptide exchange result is on record as “″++″ (≧20% = ++)”. For the substance “120 (ALLGIPLTLV; listed as Homo sapiens) [compound 120]”, the Peptide exchange result was “″+++″ (≧50% = +++)”. Consider “151 (KILQQLVTL; listed as Homo sapiens) [compound 151]”, for which the Peptide exchange result was “″+++″ (≧50% = +++)”.

Take “234 (ALMEDTGRQML; listed as Homo sapiens) [compound 234]”: the Peptide exchange result is “″++″ (≧20% = ++)”. Regarding “589 (KLYPQLPAEI; listed as Homo sapiens) [compound 589]”, the Peptide exchange result is “″+++″ (≧50% = +++)”. For “326 (FLPEALDFV; listed as Homo sapiens) [compound 326]”, the Peptide exchange result is “″+++″ (≧50% = +++)”. The value for “185 (FLIDDKGYTL; listed as Homo sapiens) [compound 185]” was “″++″ (≧20% = ++)”; that for “380 (TLIEDEIATI; listed as Homo sapiens) [compound 380]” was “″++″ (≧20% = ++)”. Turning to “607 (RLYSGISGLEL; listed as Homo sapiens) [compound 607]”, the Peptide exchange entry is on record as “″+++″ (≧50% = +++)”. For “450 (FMIDASVHPTL; listed as Homo sapiens) [compound 450]”, the Peptide exchange entry is “″+++″ (≧50% = +++)”. In the case of “516 (AVGPASILKEV; listed as Homo sapiens) [compound 516]”, the Peptide exchange entry is reported as “″++″ (≧20% = ++)”. For “544 (LLWDVPAPSL; listed as Homo sapiens) [compound 544]”, the Peptide exchange result was “″+++″ (≧50% = +++)”.

As for “46 (ILTEENIHL; listed as Homo sapiens) [compound 46]”, the Peptide exchange result was “″+++″ (≧50% = +++)”. Take “29 (KMLGIPISNILMV; listed as Homo sapiens) [compound 29]”: the Peptide exchange entry is listed as “″+++″ (≧50% = +++)”. For “361 (ALYELEGTTV; listed as Homo sapiens) [compound 361]” the value was “″+++″ (≧50% = +++)”; for “572 (ALADLIEKELSV; listed as Homo sapiens) [compound 572]”, “″+++″ (≧50% = +++)”. For “74 (ALLDPEVLSIFV; listed as Homo sapiens) [compound 74]”, the Peptide exchange entry was “″+++″ (≧50% = +++)”. With “317 (SLAALVVHV; listed as Homo sapiens) [compound 317]”, the Peptide exchange entry was “″+++″ (≧50% = +++)”. In the case of “612 (YLYNEGLSV; listed as Homo sapiens) [compound 612]”, the Peptide exchange entry was “″+++″ (≧50% = +++)”.

Consider “614 (LLLPDQPPYHL; listed as Homo sapiens) [compound 614]”, for which the Peptide exchange entry is “″+++″ (≧50% = +++)”. As to “448 (NLLETKLQL; listed as Homo sapiens) [compound 448]”, the Peptide exchange entry was “″+++″ (≧50% = +++)”. As for “90 (TLLQIIETV; listed as Homo sapiens) [compound 90]”, the Peptide exchange entry was “″+++″ (≧50% = +++)”.

As for “504 (GLSDGNPSL; listed as Homo sapiens) [compound 504]”, the Peptide exchange entry is recorded as “″++″ (≧20% = ++)”. For the substance “196 (YLYSVEIKL; listed as Homo sapiens) [compound 196]”, the Peptide exchange result is recorded as “″++++″ (≧75% = ++++)”. As for “332 (YLISELEAA; listed as Homo sapiens) [compound 332]”, the Peptide exchange entry was “″+++″ (≧50% = +++)”. “177 (YLLPEEYTSTL; listed as Homo sapiens) [compound 177]”: the Peptide exchange entry is “″++++″ (≧75% = ++++)”. The value for “239 (AAFAGKLLSV; listed as Homo sapiens) [compound 239]” was “″+++″ (≧50% = +++)”. “619 (ALQDRVPLA; listed as Homo sapiens) [compound 619]”: the Peptide exchange result is “″+++″ (≧50% = +++)”. For “231 (FLSPQQPPLLL; listed as Homo sapiens) [compound 231]”, the Peptide exchange entry is listed as “″++″ (≧20% = ++)”. “353 (YLFEMDSSL; listed as Homo sapiens) [compound 353]”: the Peptide exchange entry was “″++″ (≧20% = ++)”.

Take “127 (KIGDEPPKV; listed as Homo sapiens) [compound 127]”: the Peptide exchange entry is on record as “″++″ (≧20% = ++)”. With “507 (KLIDDQDISISL; listed as Homo sapiens) [compound 507]”, the Peptide exchange entry is on record as “″+++″ (≧50% = +++)”.

Regarding “567 (SLLPLDDIVRV; listed as Homo sapiens) [compound 567]”, the Peptide exchange entry is on record as “″+++″ (≧50% = +++)”. In the case of “379 (IMEGTLTRV; listed as Homo sapiens) [compound 379]”, the Peptide exchange result is recorded as “″++″ (≧20% = ++)”. Take “552 (GLLDLPFRVGV; listed as Homo sapiens) [compound 552]”: the Peptide exchange result is given as “″++++″ (≧75% = ++++)”. Turning to “531 (YTLPIASSIRL; listed as Homo sapiens) [compound 531]”, the Peptide exchange result is reported as “″+++″ (≧50% = +++)”. Turning to “598 (FLFPHSVLV; listed as Homo sapiens) [compound 598]”, the Peptide exchange entry is on record as “″+++″ (≧50% = +++)”. Consider “109 (IILSILEQA; listed as Homo sapiens) [compound 109]”, for which the Peptide exchange result is reported as “″++++″ (≧75% = ++++)”. With “189 (ALQRKLPYV; listed as Homo sapiens) [compound 189]”, the Peptide exchange result was “″+++″ (≧50% = +++)”.

As for “98 (LIIDQADIYL; listed as Homo sapiens) [compound 98]”, the Peptide exchange entry is “″+++″ (≧50% = +++)”. Take “279 (ALWGGTQPLL; listed as Homo sapiens) [compound 279]”: the Peptide exchange entry is reported as “″++″ (≧20% = ++)”. With “352 (SLLELLHIYV; listed as Homo sapiens) [compound 352]”, the Peptide exchange result is on record as “″+++″ (≧50% = +++)”. For the substance “269 (RVLEVGALQAV; listed as Homo sapiens) [compound 269]”, the Peptide exchange result is on record as “″++″ (≧20% = ++)”. As for “548 (ALWENPESGEL; listed as Homo sapiens) [compound 548]”, the Peptide exchange entry is recorded as “″++″ (≧20% = ++)”. The value for “254 (TLLAFIMEL; listed as Homo sapiens) [compound 254]” was “″+++″ (≧50% = +++)”; that for “313 (VLFDDELLMV; listed as Homo sapiens) [compound 313]” was “″+++″ (≧50% = +++)”. For “275 (YLVYILNEL; listed as Homo sapiens) [compound 275]”, the Peptide exchange entry is recorded as “″++″ (≧20% = ++)”. As for “329 (FLVTLNNVEV; listed as Homo sapiens) [compound 329]”, the Peptide exchange result is recorded as “″++++″ (≧75% = ++++)”.

Turning to “253 (GLDAATATV; listed as Homo sapiens) [compound 253]”, the Peptide exchange entry is “″++″ (≧20% = ++)”. For “565 (ALQETPTSV; listed as Homo sapiens) [compound 565]” the value was “″++″ (≧20% = ++)”; for “488 (FLAEDPKVTL; listed as Homo sapiens) [compound 488]”, “″+++″ (≧50% = +++)”. As to “163 (ALDEMGDLLQL; listed as Homo sapiens) [compound 163]”, the Peptide exchange result is “″+++″ (≧50% = +++)”. The value for “131 (FVPPVTVFPSL; listed as Homo sapiens) [compound 131]” was “″++″ (≧20% = ++)”. Turning to “47 (ILLSVPLLVV; listed as Homo sapiens) [compound 47]”, the Peptide exchange entry is “″++″ (≧20% = ++)”. Take “496 (FLVEKQPPQV; listed as Homo sapiens) [compound 496]”: the Peptide exchange entry is on record as “″+++″ (≧50% = +++)”. For “51 (LLPDLEFYV; listed as Homo sapiens) [compound 51]” the value was “″++++″ (≧75% = ++++)”; for “635 (SLDSTLHAV; listed as Homo sapiens) [compound 635]”, “″+++″ (≧50% = +++)”. Take “354 (LILEGVDTV; listed as Homo sapiens) [compound 354]”: the Peptide exchange entry is recorded as “″++″ (≧20% = ++)”.

Turning to “53 (KMIETDILQKV; listed as Homo sapiens) [compound 53]”, the Peptide exchange entry was “″++++″ (≧75% = ++++)”. As to “217 (ALIHPVSTV; listed as Homo sapiens) [compound 217]”, the Peptide exchange entry is “″++″ (≧20% = ++)”.
